Experimental data taken from publication PMC4619145 (Virology, 2015).

Experiments:
[1] = molecular target: T1, DENV-2 envelope glycoprotein E domain III (DIII), wild type, displayed on M13 phage (Dengue virus 2, Jamaica/1409/1983); experiment: ELISA
T1 chain: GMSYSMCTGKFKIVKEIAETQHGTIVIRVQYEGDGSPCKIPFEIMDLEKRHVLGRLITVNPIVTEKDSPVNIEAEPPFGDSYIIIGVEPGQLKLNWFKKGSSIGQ

[2] = molecular target: T2, DENV-3 envelope glycoprotein E domain III (DIII), wild type, displayed on M13 phage (Dengue virus 3, Thailand/PaH881/1988); experiment: ELISA
T2 chain: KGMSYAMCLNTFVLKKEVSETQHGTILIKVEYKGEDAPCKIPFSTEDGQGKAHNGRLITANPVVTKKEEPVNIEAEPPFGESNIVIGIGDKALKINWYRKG

B1: monoclonal antibody 4E11 (IgG) (antibody, V domains shown)
VH: VKLLEQSGAELVKPGASVRLSCTASGFNIKDTYMSWVKQRPEQGLEWIGRIDPANGDTKYDPKFQGKATITADTSSNTAYLHLSSLTSGDTAVYYCSRGWEGFAYWGQGTLVTVSA
VL: ELVMTQTPASLAVSLGQRATISCRASENVDRYGNSFMHWYQQKAGQPPKLLIYRASNLESGIPARFSGSGSRTDFTLTINPVEADDVATYFCQRSNEVPWTFGGGTKLEIK
B1: binds [1]; binds [2].
